The data set is described as follows: protein stability index of a GFP-peptide fusion (GPS, HEK-293T) (PSI 1-6); higher = more stable.
The mark [1] stands for this setting: treatment: DMSO, c terminus: a fixed tail appended.
[2] abbreviates: treatment: MLN4924 1 uM, 8 h, c terminus: a fixed tail appended.

± gives the standard deviation.
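Also: 24-mer peptide tiles fused after GFP, lentivirally expressed, FACS-sorted into six equal bins by GFP/DsRed ratio, decoded by Illumina sequencing, PSI is the read-weighted mean bin number.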

Regarding HCPESGEEAVILLEDLERELDEPQ [ZSCAN9], the protein stability index under setting [1] was 5.55 ± 0.24 and the protein stability index under setting [2] was 5.46 ± 0.44.

As to VFLASKVEEFGVVSNTRLIAAATS [CCNC], the protein stability index by setting is: under setting [1], 2.46 ± 0.68; under setting [2], 2.24 ± 0.35.

SQPPKKKPKTTNIELQGVPNDEVH [RBBP5]: the protein stability index worked out at 5.32 ± 0.2 under setting [1] and 5.28 ± 0.14 under setting [2].

In the case of KGLKKVVHETPAASKTVFFFFSSP [BTBD1], the protein stability index worked out at 2.29 ± 0.54 under setting [1] and 2.29 ± 0.26 under setting [2].

Consider LTKHEWTEALGCDPPLSQDERTHR [ZNF8], for which the protein stability index stood at 4.6 ± 0.2 under setting [1] and 4.72 ± 0.17 under setting [2].

For the sequence NALTLFNLAQDPQCKEWQVLMCGF [TMEM120A], the protein stability index by setting is: under setting [1], 2.26 ± 0.38; under setting [2], 2.06 ± 0.16.

In the case of LLVGGLPPGPDRLPSNLVQYYDDE [KLHL14], the protein stability index turned out to be 4.17 ± 0.25 under setting [1] and 4.04 ± 0.087 under setting [2].

Turning to TRILDGGNPFLDVPQALSATTYKH [PSD2], the protein stability index by setting is: under setting [1], 3.62 ± 0.17; under setting [2], 3.73 ± 0.21.

GLGLEDADWTQGLPWRFEELLTCS [TEX19]: the protein stability index under setting [1] is 2.42 ± 0.47 and the protein stability index under setting [2] came to 2.76 ± 0.62.

In the case of QSWNNQAWNSPFYNCGEESLQSCM [NANOGP8], the protein stability index was 2.51 ± 0.18 under setting [1] and 2.48 ± 0.33 under setting [2].

Turning to LFSELAEDKENYKKFYEAFSKNLK [HSP90AB1], the protein stability index stood at 2.83 ± 0.23 under setting [1] and 3.62 ± 0.17 under setting [2].

With CGPQWEMSEWSECTAKCGERSVVT [ADAMTSL2], the protein stability index is, setting by setting: under setting [1], 2.92 ± 0.42; under setting [2], 3 ± 0.52.

In turn, YQLADWCLHHICTNYNNVCRKFPR [RHOBTB2] had a protein stability index under setting [1] of 2.25 ± 0.52 and a protein stability index under setting [2] of 2.23 ± 0.14.

For the sequence FLVFVIVLFFIYHFMQAEEGNPF [EMD], the protein stability index by setting is: (treatment: DMSO, c terminus: native) 2.94 ± 0.44; (treatment: MLN4924 1 uM, 8 h, c terminus: native) 2.83 ± 0.17.

For LTIRESILINNGSRIKGWWVFHHY [TMEM120A], the protein stability index is, setting by setting: under setting [1], 3.1 ± 0.7; under setting [2], 2.73 ± 0.92.

For GAIAQSSIYPMEVLKTRMALRKTG [SLC25A25], the protein stability index under setting [1] was determined as 3.54 ± 0.11 and the protein stability index under setting [2] stood at 3.74 ± 0.28.

In the case of KTQICHTLAVTCQLPIDRGGGEGK [RAD51], the protein stability index runs as follows: under setting [1], 3.81 ± 0.17; under setting [2], 3.95 ± 0.42.

As for SYKNLTLKFHKLVNVTIHFRLKTI [MCOLN1], the protein stability index is, setting by setting: under setting [1], 3.21 ± 0.5; under setting [2], 3.03 ± 0.41.

For the sequence SAKTRQRVEDAFYTLVREIRQYRL [KRAS], under setting [2], the protein stability index turned out to be 2.31 ± 0.4.

As to EELEEALEVERQENEQRRLFIQKE [MNAT1], the protein stability index under setting [1] was found to be 5.05 ± 0.24 and the protein stability index under setting [2] amounted to 5 ± 0.16.

Take KEKSSTVPIPTVNQYLYFLFAPTL [SOAT1]: the protein stability index is, setting by setting: under setting [1], 2.57 ± 1; under setting [2], 2.17 ± 0.51.

Consider FQRAMHDYNQAEMKQRDNCKIRIQ [STX11], for which the protein stability index by setting is: under setting [1], 3.08 ± 0.33; under setting [2], 3.44 ± 0.37.

Turning to EEQRVEQQTKLEAEKLKVQALKDR [LSM1], the protein stability index turned out to be 5.55 ± 0.28 under setting [1] and 5.36 ± 0.12 under setting [2].

With CTAGNFMECQPESSISHRFHKDCA [EHMT1], the protein stability index under setting [1] stood at 2.96 ± 0.25 and the protein stability index under setting [2] is 3.03 ± 0.27.

Regarding TKFGLFTPGSRIESILMSLPLTAR [CPOX], the protein stability index by setting is: under setting [1], 2.21 ± 0.3; under setting [2], 2.2 ± 0.28.

As for IIKKVAEVALDKGCSQFRLAVLDW [SAT2], the protein stability index runs as follows: under setting [1], 2.77 ± 0.4; under setting [2], 2.82 ± 0.6.

With KLSGFMSKLVPAIQNAHKNSTGSG [TPRG1], the protein stability index under setting [1] was found to be 2.72 ± 0.2 and the protein stability index under setting [2] is 3.03 ± 0.23.

Sequence ALWKHLKSMHREELEKSGHGQAGQ [ZBED2] had a protein stability index under setting [1] of 2.98 ± 0.38 and a protein stability index under setting [2] of 3.48 ± 0.43.

Take SFVYVNPEDGRIFAQRTFDYELLQ [PCDHGC5]: the protein stability index was 2.2 ± 0.26 under setting [1] and 2.56 ± 0.28 under setting [2].

Values taken from the supplement of paper PMC10567573.
